The source of these data is patent US7678885 (GENETICS INSTITUTE, dated 2010).

To fix the notation:
B2: BMP-6 subunit beginning with amino acid #375 (CHO-produced) (ligand)
chain: SASSRRRQQSRNRSTQSQDVARVSSASDYNSSELKTACRKHELYVSFQDLGWQDWIIAPKGYAANYCDGECSFPLNAHMNATNHAIVQTLVHLMNPEYVPKPCCAPTKLNAISVLYFDDNSNVILKKYRNMVVRACGCH
notes: Single subunit

In data set [1] the target is B2. In words: protein sequencing of purified CHO BMP-2/6 heterodimer subunits. As to the method:
(§1) The BMP-2/6 heterodimer subunits are analyzed on a protein sequenator.

Data set [2] deals with T1, BMP-2 subunit beginning with amino acid #249 (CHO-produced) (human, UniProt P12643 249-396).
T1 construct: Single subunit; also called BMP-2 subunit #249 Ser-Lev-His
T1 sequence: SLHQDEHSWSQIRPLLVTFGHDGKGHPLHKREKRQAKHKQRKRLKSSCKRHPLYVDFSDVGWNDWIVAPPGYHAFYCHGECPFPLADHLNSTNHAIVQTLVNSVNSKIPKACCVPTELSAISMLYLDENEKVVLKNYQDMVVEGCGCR
The description is as above. As for the experimental part:
as §1

Data set [3] concerns the molecule itself. In words: purification of BMP-2/6 from CHO 12C07 medium, gel analysis. As for the experimental part:
After the completion of sample loading, the column was washed with 10 bed volumes of the equilibration buffer. Bound BMP-2/7 or BMP-2/6 heterodimers were eluted with 5 bed volumes of 100 mM potassium phosphate, 6M urea, pH 7.4. This eluate was loaded directly onto a Vydac C_4 reverse-phase HPLC column equilibrated in water –0.1% TFA. BMP-2/7 or BMP-2/6 heterodimers were eluted with a gradient of 30-50% acetonitrile in water—0.1% trifluoroacetic acid.
Fractions containing BMPs are identified by SDS-PAGE in the presence or absence of reductant. The identity of the BMPs with respect to the heterodimers vs. homodimers is determined by 2D-PAGE (+/−reductant). Fractions with heterodimers gave bands which reduce to two spots. Bands from homodimer fractions reduce to a single spot for each BMP species.

Data set [4] concerns the molecule itself. In words: refolding of E. coli monomer, SDS-PAGE with and without reduction.

B1: BMP-2 subunit beginning with amino acid #283 (CHO-produced) (ligand)
chain: QAKHKQRKRLKSSCKRHPLYVDFSDVGWNDWIVAPPGYHAFYCHGECPFPLADHLNSTNHAIVQTLVNSVNSKIPKACCVPTELSAISMLYLDENEKVVLKNYQDMVVEGCGCR
notes: also called mature BMP-2 subunit
For the molecule B1, the binding result in data set [1] was “binds”.

On to B2, for which the binding result in data set [2] and in data set [3] was “binds” throughout.

B3: E. coli BMP-2 monomer (mature portion of BMP-2 from plasmid pALBP2-781) (ligand)
chain: MQAKHKQRKRLKSSCKRHPLYVDFSDVGWNDWIVAPPGYHAFYCHGECPFPLADHLNSTNHAIVQTLVNSVNSKIPKACCVPTELSAISMLYLDENEKVVLKNYQDMVVEGCGCR
B3: the binding result in data set [4] is “binds”.
